Publication PMC8017925, “Structural basis for differential recognition of phosphohistidine-containing peptides by 1-pHis and 3-pHis monoclonal antibodies” (Proceedings of the National Academy of Sciences of the …, 2021)

Assays:
[1] = biological target: T1, ACLY peptide, 1-pHis form; test: BLI; biotinylated pHis peptides (20 nM) on streptavidin biosensors, Fab in solution at varying concentrations; 50 mM Hepes pH 8.0, 150 mM NaCl, 0.05% Tween-20, 0.2% BSA; Octet RED96e; global fit to a 1:1 Langmuir model
T1 sequence (peptide, biotin on the N-terminus; C-terminal amide; 1-phosphohistidine at position 5): VQFGHAGAC

[2] = biological target: T2, Common-His peptide, 1-pHis form; test: as above
T2 sequence (peptide, biotin on the N-terminus; C-terminal amide; 1-phosphohistidine at position 5): GEQLHDLNA

[3] = biological target: T3, NM23 peptide, 1-pHis form; test: as above
T3 sequence (peptide, biotin on the N-terminus; C-terminal amide; 1-phosphohistidine at position 5): RNIIHGSDS

[4] = substrate: SCS peptide, 1-pHis form; test: as above
[5] = biological target: ACLYana-1-pTza peptide (AGAG-1-pTza-AGAG); test: BLI binding kinetics of 1-pHis Fabs with cognate pTza peptide; details: triplicate; for Kd: BLI Octet RED96e, N-terminally biotinylated peptide (20 nM) on streptavidin biosensors, varying Fab concentration, 50 mM Hepes pH 8.0, 150 mM NaCl, 0.05% Tween-20, 0.2% BSA, association 120 s, dissociation 200 s, global fit 1:1 Langmuir; for ka / kd: BLI, immobilized biotinylated ACLYana-1-pTza, 1:1 Langmuir global fit
Experimental: (§1) Biolayer interferometry (BLI) studies were performed to determine the relative affinity of pHis Fabs to in situ phosphorylated His peptides versus the phosphomimetic substrates. The N-terminally biotinylated peptides were immobilized on streptavidin biosensors and the rate of association (ka) and dissociation (kd) were determined by varying the pHis Fab concentration. Equilibrium dissociation constants (KD) were determined by fitting the experimental data to a 1:1 Langmuir binding model. ACLYana-1-pTza and ACLYana-3-pTza peptides were used to determine affinity to 1-pHis and 3-pHis Fabs, respectively (Fig. 3 A–E and Table 1). […] The two isomers were separated from each other by passing the reaction through affinity columns containing 1-pHis mAbs using SC1-1 or SC50-3 IgGs or 3-pHis mAbs using SC39-4, SC44-8, and SC56-2 IgGs. The eluates thus contained either predominantly 1-pHis or 3-pHis peptides. These peptides were used to determine the affinity to their respective isomer class of pHis Fabs (Fig. 3 F–J, Table 1, and SI Appendix, Fig. S5). […] This experimental observation is well supported by the higher number of hydrogen bonds that support the SC44-8:3-pTza interaction compared to other pHis Fabs (SI Appendix, Table S5). […] There are at least three reasons for the lower affinity of the mAbs for pHis peptides compared to pTza peptides: The continuous hydrolysis of phosphate from the pHis peptides during the course of the experiment (SI Appendix, Fig. S6), a reduction in the number of hydrogen bond interactions due to one less nitrogen in the imidazole ring compared to triazolyl ring (Fig. 4 and SI Appendix, Fig. S8), and inherently different electronic properties of the imidazole and triazolyl rings in His and Tza, respectively ([20]).
(§2) Fig. 3. Binding kinetics of pHis Fabs with cognate pTza and pHis peptides. BLI studies of immobilized peptides (ACLYana-1/3-pTza and phosphorylated ACLYana) with varying concentrations of the pHis Fabs were carried out in triplicate on an Octet Red96e instrument (FortéBio). SC1-1 (A) and SC50-3 (B) pHis Fab interaction with their ACLYana-1-pTza peptides. SC39-4 (C), SC44-8 (D), and SC56-2 (E) pHis Fabs interactions with ACLYana-3-pTza peptides. SC1-1 (F), SC50-3 (G), SC39-4 (H), SC44-8 (I), and SC56-2 (J) pHis Fabs interactions with their affinity-purified ACLYana-pHis peptides are represented, Right. The experimental data are represented in the black dashed lines and the nonlinear least-squares fitting was represented in the red continuous lines. The χ^2 for the goodness of fit is under 1.0 for the all the plots.
(§3) The binding kinetics of pHis Fabs with the peptides (pTza and pHis) were evaluated with an Octet RED96e (FortéBio). Streptavidin-coated biosensors (FortéBio) were presoaked in buffer containing 50 mM Hepes pH 8.0, 150 mM NaCl, 0.05% Tween-20, and 0.2% BSA for 15 min. The biotinylated pTza peptides or pHis peptides (20 nM) with and without phosphoramidate treatment were coated onto these streptavidin biosensors and analyzed for their binding to varying concentrations of the pHis Fabs with an association time of 120 s and dissociation time of 200 s. The entire set of experiments was repeated three times. The data were analyzed using the Octet software (FortéBio) and the rates of association and dissociation were obtained by global fitting data to the 1:1 Langmuir interaction model.

[6] = tested on: ACLYana-1-pHis peptide (AGAG-1-pHis-AGAG); test: BLI binding kinetics of 1-pHis Fabs with affinity-purified pHis peptide; details: for ka / kd / Kd: BLI, 1:1 Langmuir global fit, triplicate; for ka / kd: affinity-purified ACLYana-1-pHis peptide; for Kd: ACLYana phosphorylated with phosphoramidate (8 h, 23 °C), 1-pHis isomer affinity-purified on 1-pHis IgG column, immobilized on streptavidin biosensors, Hepes pH 8.0; for affinity to 1-pHis peptides, times weaker than the 1-pTza peptides: ratio of BLI KD, 1-pHis versus 1-pTza peptide
Experimental: as §1, §2, §3
Supplementary methods and materials
Peptide Synthesis. Peptides used for the crystallization were synthesized at Sanofi as described in Fuhs et al. (1). Peptides used in the DSF and BLI experiments were synthesized by the Salk Peptide Synthesis Core. These peptides were N-terminally biotinylated and C-terminally amidated. They were synthesized using standard Fmoc chemistry on a Gyros Protein Technologies Tribute peptide synthesizer with UV monitoring. Following the deprotection, peptides were analyzed by mass spectrometry and analytical HPLC by the Proteomics Core at […]
Salk. […]

[7] = biological target: T4, ACLYana-1-pHis peptide (AGAG-1-pHis-AGAG); test: BLI; N-terminally biotinylated peptides (20 nM) on streptavidin biosensors, varying concentrations of Fab in solution; 50 mM Hepes pH 8.0, 150 mM NaCl, 0.05% Tween-20, 0.2% BSA; association 120 s, dissociation 200 s; global fit to a 1:1 Langmuir model; Octet RED96e; in triplicate
T4 sequence (peptide, 1-phosphohistidine at position 5; biotin on the N-terminus): AGAGHAGAG

[8] = biological target: ACLYana-1-pTza peptide (AGAG-1-pTza-AGAG); test: as above
[9] = biological target: T5, ACLY peptide, 3-pHis form; test: BLI; biotinylated pHis peptides (20 nM) on streptavidin biosensors, Fab in solution at varying concentrations; 50 mM Hepes pH 8.0, 150 mM NaCl, 0.05% Tween-20, 0.2% BSA; Octet RED96e; global fit to a 1:1 Langmuir model
T5 sequence (peptide, biotin on the N-terminus; C-terminal amide; 3-phosphohistidine at position 5): VQFGHAGAC

[10] = substrate: SCS peptide, 3-pHis form; test: as above
[11] = biological target: ACLY peptide, phosphorylated, 3-pHis form; test: BLI; N-terminally biotinylated peptides (20 nM) on streptavidin biosensors, varying concentrations of Fab in solution; 50 mM Hepes pH 8.0, 150 mM NaCl, 0.05% Tween-20, 0.2% BSA; association 120 s, dissociation 200 s; global fit to a 1:1 Langmuir model; Octet RED96e; in triplicate
[12] = biological target: T6, ACLYana-3-pHis peptide (AGAG-3-pHis-AGAG); test: as above
T6 sequence (peptide, 3-phosphohistidine at position 5; biotin on the N-terminus): AGAGHAGAG

[13] = biological target: ACLYana-3-pTza peptide (AGAG-3-pTza-AGAG); test: as above
[14] = substrate: SCS peptide, phosphorylated, 3-pHis form; test: as above

B1: SC50-3 Fab (Fab, V domains shown)
VH: QSVKESEGGLFKPTDTLTLTCTASGFSLNGYGVIWVRQAPGKGLEWIGSAGAYGRIYYPNWARSRATITRNTNLNTVSLKMTSLTAADTATYFCARRTNVSTSVGFDSWGPGTLVTVSS
VL: DMTQTPSSKSVPVGDTVTINCQASESVYSNNRLSWFQQKPGQPPKLLIYLVSTLASGVPSRFKGSGSGTQFTLTISDVVCDDAATYYCVGYKSSTTDGLAFGGGTEVVVK
- Kd [1]: 194 nM
- koff [1]: 0.0247 s⁻¹
- kon [1]: 127000 M⁻¹ s⁻¹
- Kd [2]: 336 nM
- koff [2]: 0.0243 s⁻¹
- kon [2]: 72200 M⁻¹ s⁻¹
- Kd [3]: 362 nM
- koff [3]: 0.0176 s⁻¹
- kon [3]: 48500 M⁻¹ s⁻¹
- Kd [4]: 411 nM
- koff [4]: 0.0147 s⁻¹
- kon [4]: 35800 M⁻¹ s⁻¹

B2: SC1-1: Fab of rabbit monoclonal antibody that recognizes 1-pHis (antibody, V domains shown)
VH: QSVEESEGGLFKPTDTLTLTCTASGFSLSGHGVIWVRQAPGKGLEWIGSAGAYGRIYYASWAKSRSTITRNTNLNTVTLKMTSLTAADTATYFCARRSDVGTSVGFDSWGPGTLVTISS
VL: B1 VL
- Kd [5]: 24.8 nM
- ka [5]: 81300 ± 347 M⁻¹ s⁻¹
- kd [5]: 0.00199 ± 3.19e-06 s⁻¹
- ka [6]: 97300 ± 551 M⁻¹ s⁻¹
- kd [6]: 0.00925 ± 1.33e-05 s⁻¹
- Kd [6]: 95.1 nM
- affinity to 1-pHis peptides, times weaker than the 1-pTza peptides [6]: two to four times weaker

B3: SC50-3: Fab of rabbit 1-pHis monoclonal antibody, expressed with SC50-3 heavy chain and SC1-1 light chain (antibody, V domains shown)
VH: B1 VH
VL: B1 VL
- Kd [5]: 16 nM
- ka [5]: 85100 ± 303 M⁻¹ s⁻¹
- kd [5]: 0.00136 ± 3.19e-06 s⁻¹
- ka [6]: 175000 ± 1010 M⁻¹ s⁻¹
- kd [6]: 0.00494 ± 1.06e-05 s⁻¹
- Kd [6]: 28.3 nM
- affinity to 1-pHis peptides, times weaker than the 1-pTza peptides [6]: two to four times weaker

B4: SC50-3 Fab (SC50-3 heavy chain with SC1-1 light chain) (Fab, V domains shown)
VH: B1 VH
VL: B1 VL
- Kd [7]: 28.3 nM
- koff [7]: 0.00494 s⁻¹
- kon [7]: 175000 M⁻¹ s⁻¹
- Kd [8]: 16 nM
- koff [8]: 0.00136 s⁻¹
- kon [8]: 85100 M⁻¹ s⁻¹

B5: SC44-8 Fab (Fab, V domains shown)
VH: QSVKESGRGLVQPGGSLTLTCTASGFSIDSYGFSWVRQAPGKGLEHIGYLTAGGRAFYASWAKSRSTITRNTNENTVTLKMTSLTAADTATYFCAKLGSGNPVAIWGPGTLVTVSS
VL: QVLTQTPSFTSAAVGGTVTINCQSSQSVWRNKNLAWYQQKPGQPPKRLIYAIATLDSGVPSRFSGSGSGTQFTLTISDVQCDDAATYYCVGHYGSENDAYYAFGGGTEVVVK
- Kd [9]: 348 nM
- koff [9]: 0.00972 s⁻¹
- kon [9]: 28000 M⁻¹ s⁻¹
- Kd [10]: 467 nM
- koff [10]: 0.0137 s⁻¹
- kon [10]: 29300 M⁻¹ s⁻¹
- BLI signal intensity for the association [11]: 0.5 nm
- BLI signal intensity for the association [12]: 2 nm
- Kd [12]: 18.2 nM
- koff [12]: 0.0017 s⁻¹
- kon [12]: 93600 M⁻¹ s⁻¹
- Kd [13]: 0.235 nM
- koff [13]: 3.66e-05 s⁻¹
- kon [13]: 156000 M⁻¹ s⁻¹
- BLI signal intensity for the association [14]: 0.5 nm
